Measured values: the DeepSol protein solubility set

assay: soluble on expression in E. coli; label from the status in PepcDB or PDB records

Sequence | soluble on expression in E. coli
MGSDKIHHHHHHMPEIHQSIAQHYHERTKYDPETIASKSQRLDWAKQPVPFKEYKIGSAIDLKPYLQETPEVFVNDTNGQWWQRLSRLLFRSYGLTARMPSMGNTVYLRAAPSAGGLYPAEVYVVSRGTPLLSPGLYNYQCRTHSLIHYWESDVWQSLQEACFWHPALESTQLAIIVTAVFYRSAWRYEDRAYRRICLDTGHLLGNIELSAAITDYRPHLIGGFIDEAVNDLLYIDPLQEGAIAVLPLADLLDIQQNISPGCTALPSATETNYPQVPDGELLKYFHHHTQISASITGKLNLPTVIQEKSLEDKYNFPFCLKISTVSAPIYWGENLSDLEITMHKRRSTRAYNGEELTFDELKALLDFTYQPQNYIDQSLDNSPDYFDLNLIETFIAVCGVQGLEAGCYYYAPKAQELRQIRFKNFRRELHFLCLGQELGRDAAAVIFHTSDLKSAIAQYGDRVYRYLHMDAGHLGQRLNLAAIQLNLGVSGIGGFFDDQVNEVLGIPNDEAVIYITTLGRPR | not soluble
MHHISLTPFGRQPVTAGILASQRLAEARSPLPEIDKWALFADLRTARARFGVSDRDLAVLYALLSFLPGRVLTDAAPLVVFPSNATLSDRAHGMAESTLRRHLAALVEAGLVARRDSANGKRYAHRNRAGELVTAYGFDLRPLLVRAAEIAETAAALEAEAEAMARARTALVLKLRDATKLAAYADPEGRAAGIEPRLMPIRRALRRRLTLADLAEMARTLDLVLGDIRRTLALRAAEMDGTVGRIERHHTESKTESSDLEGGHACGKTSGEAEKDCRNIGGESPDEKANRPSPNRAEPDEARPEELASLEINDNQRPAPTLPLGLVLKACPDLEPYAPEIRNWRDLTAAASRLRGMMGITPSAWEEAKAEMGAETASVALAAILQRFASIRNPGGYLRALTRRASEGAFSPTPMIMALLAETREA | not soluble
MERSQCGSRDRGVSGRPHLAPGLVVAAPPPPSPALPVPSGMQCARCRNHGVVSALKGHKRFCRWRDCACAKCTLIAERQRVMAAQVALRRQQAQEESEARGLQRLLCSGLSWPPGGRASGGGGRAENPQSTGGPAAGAALGLGALRQASGSATPAFEVFQQDYPEEKQEQKESKCESCQNGQEELISKSHQLYLGSSSRSNGVIGKQSIGSSISEYSNKPDSILSPHPGEQSGGEESPRSLSSSDLESGNESEWVKDLTATKASLPTVSSRPRDPLDILTKIFPNYRRSRLEGILRFCKGDVVQAIEQVLNGKEHKPDNRNLANSEELENTAFQRASSFSLAGIGFGTLGNKSAFSPLQTTSASYGGDSSLYGVNPRVGISPLRLAYSSAGRGLSGFMSPYLTPGLVPTLPFRPALDYAFSGMIRDSSYLSSKDSITCGRLYFRPNQDNP | soluble
MAASRALSLTAEAVRAVIPRRSGRLLTRWETTSSIPEAGEGQIRLTDSCVQVGGRTRGGGAQEGSRRLPSHPSRYLRLLGILDPLS | not soluble
MGHHHHHHSHIPFDYIVEKTVSTGVLVDVIGALLEVGNLTEDYRGLKLPFKIMDQYKEVLQCEAHNDQALEFQRFFQRLTGPQNVIALVSWRLSGIYKLKTLSNDPISKVIANPDIPEVEEIRVVVY | not soluble
MEQLTVQGLVRLMGAGANLVCVVTDNERRTEAIVGQATARLKGAGSPLVWTCTDGFTRDGTVVPGTVDPVAALDHALAHPAPLMTLFKDLSWFWSDNPYVIRKLKEFAVRARGKAAVVLARDESVPAELREDIVVLGQGLPGIGEITAFLGQLKEREPVLAAACAGHPGLMDHLVVAAQGLDLVDIERGVRALRNVPEAAGHEMVRSLFETKQAVIRRSGIMEFVANDTAPEQVGGMENLKAWMERREQAFGLESIASGAALPKGILMMGIAGCGKSLFVKAIAARWRLPLIRLDMAAVYDGSFGTPESSLRKAFRTAEAVAPCVLWIDEIESGISVQGFKAEGGPASRLLGSFLTWMQEKKAPVFVAATANAIEMLPAEIIRKGRFDEVFYVGLPDAGAREDIFRIHLERQKADSARFDVPLLAGSTKGFSGAEIEQAVLSAAFEARADRRTLTQQDVIVAVSRTVPLSVTMAEQIKKIEAWAFKRAVPAAGKF | not soluble
MSPPLVIKNGTVVNEDGMFKADVLVRNGIIVEVSPNITALPDTEVIDATDRLVIPGGIDPHTHMQMPYMGEVTKDDFLKGTEAAVAGGTTMIIDFCCPDHRNGESLIAGYNRWRSWADPKVCCDYGLSVAITMWRPETAEQMAIITSPEFGVNSFKFYMAYENTLMVRDDELFRGMQECAKLRALARVHCENGSVIKEKEIDLLAKGVTGPEGHTQSRPEEIEAEATNRACVLAAQANCPVYIVHVMTKGAASAISHHRAQGSIVFGEPIAAGLALDGSHYYNEDWLHAARYVMSPPLSRDPTTPELLMKLLAAGELHLTGTDNCTYDCRQKSLGKGNFTKIPNGINGVEDRMSVVWEKGVHSGIIDPMRYVSITSSTAAKIFNIYPRKGRIAVGSDADIVIFNPNATRTISKDTHHHNLDFNIFEGINCHGVAEVTISRGRIVWAHGKLQTVPGSGKFIPLLANSPFVFSTHEKREQKIQPRIVERLE | not soluble
QVQLQQSGSELMKPGASVQISCKATGYTFSDYWIEWVKQRPGHGLEWIGDILCGTGRTRYNEKLKAMATFTADTSSNTAFMQLSSLTSEDSAVYYCARSASYGDYADYWGHGTTLTVSSAKTTPPSVYPLAPGCGDTTGSSVTLGCLVKGYFPESVTVTWNSGSLSSSVHTFPALLQSGLYTMSSSVTVPSSTWPSQTVTCSVAHPASSTTVDKKLEPS | soluble
MSKLLLVGEPLIRVSPNQFQPLTNACEAQLFFGGSEVNIARTLGGFGLEARLFTALPDNPVGHAFHQFLKQSGVDMSLTAWQGHRVGLYYLENGFGCRASQVYYDRCGSSFSALDKDSLDLAAIFEGISHFHFSGISLALGKKTQDLIEVLVREAKKRDICISFDLNFRSSMIAVADAKRLFSHFAQYADIIFGMEPLLLDSDDFDMFDRKKADTTTIRERLAGLYQRYQLQAIYHTERSNDAQGSNHFKAYAYDRQFYESCEVTTPVLQRVGSGDAFVAGLLYQLLEGNEKQRNLDFAVATASLKCTVAEDQLYHSVQQVEAVLANQRDIQR | not soluble
MCASFAKFAERWNPLPETLLSWSKNNCDKVQPRPRDMSCEDVVQFVADCNFSGGGPGPGKLADTTNRQVADTFYQRTYENSPRVLPKYIYYNENTARDYGQFGNWYYPNYYPPTYLGFFDGRPASMAQLENDYKFAKGGHYPYNRADNIVNIGLQQTYLPTCLHDLFYCVRASNGQRPQAYLNYKEYRRDRDQAAEQMAQRDQDIKTLRRHRTRHHEDDE | not soluble
RYIEKALKRPGNILIGTLPVGLDFPTRIVAEIVDAPSLTIEEIMRKAKYYLREGADIIDIGMESGKTNVEFLESVLPEIKEKINAPLSLDTLNPKEIEAGEKEVDLILSVDFGTVEEILPSKPVVLIPTNMKEGKFIEDPIGRAKALEKLKEKALNLGYKGLILDPILEHYPNFSRSLVAFYLYRMRNPQDILLAGVGNITEMMDADSVGLNALLASIAGELKISLLLTTEVSPKATGSVRELKRGIDMVLLGGVKDVGINLLILKEKRRKEQKIEFAKTIIRAKKKPVKLEEVYFKIYVVGTELAVTAYKGTNPVMTIIGKEPNEIIDTILEHFSISPRHAFYLGRELEKAYTGLKIRRSYIQEEELFGDFYFEK | not soluble
MGSDKIHHHHHHAQTPVEKGLKSINRQAAEAYIGFLADDELQGREAGFHGSRVAARYIASLLKEMGIRPLGESYYQPFDAYRKERQQKGRLEVHPDSIAKLKQVVHQKLSMNNVLGMIPGKKTNEYVIVGAHFDHLGIDPALDGDQIYNGADDNASGVSAVLQIAKAFVVSGQQPERNVIFAFWDGEEKGLLGSKYFVQECPFINQVKGYLNFDMIGRNNQPQNPKHVVYFYTEANPAFGRWLKEDIKKYGLQLEPNYRPWDKPVGGSDNGSFAKAGIPIIWYHTDGHPDYHQPSDHADRLNWDKVVEISKASFLNVWNLANEKDY | not soluble
MTKTLPKDFIFGGATAAYQAEGATHTDGKGPVAWDKYLEDNYWYTAEPASDFYHKYPVDLELAEEYGVNGIRISIAWSRIFPTGYGEVNEKGVEFYHKLFAECHKRHVEPFVTLHHFDTPEALHSNGDFLNRENIEHFIDYAAFCFEEFPEVNYWTTFNEIGPIGDGQYLVGKFPPGIKYDLAKVFQSHHNMMVSHARAVKLYKDKGYKGEIGVVHALPTKYPYDPENPADVRAAELEDIIHNKFILDATYLGHYSDKTMEGVNHILAENGGELDLRDEDFQALDAAKDLNDFLGINYYMSDWMQAFDGETEIIHNGKGEKGSSKYQIKGVGRRVAPDYVPRTDWDWIIYPEGLYDQIMRVKNDYPNYKKIYITCNGLGYKDEFVDNTVYDDGRIDYVKQHLEVLSDAIADGANVKGYFIWSLMDVFSWSNGYEKRYGLFYVDFDTQERYPKKSAHWYKKLAETQVIE | soluble
